Data on eight substances can be found in patent US6310180.

Broadly, the Km is the concentration of substrate that gives half-maximal velocity.

One series addresses substrate IV, H-Lys-Ala-Arg-Val-Nle-Phe(p-NO2)-Glu-Ala-Nle-NH2 (HIV).
Experiment: not given
As to “[Ala^38, SPro^39, Abu^67,95]-HIV-1 PR (enzyme)”, the kcat/Km, hydrolysis of substrate IV is 98400 M^-1, S^-1.
Still for that read-out and setting: under “[Leu-NHCH2-Thz^38-39, Abu^67,95]-HIV-1 PR (enzyme)” stands 36300 M^-1, S^-1; under [SPro^39, Abu^67,95]-HIV-1 PR (enzyme), 119000 M^-1, S^-1.
The same measure, in the same setting: the value for recombinant HIV-1 PR (enzyme) was 121000 M^-1, S^-1.

The test system of the next series is substrate IV, H-Lys-Ala-Arg-Val-Nle-Phe(p-NO2)-Glu-Ala-Nle-NH2. In words: steady-state kinetics of substrate IV hydrolysis at 22° C., RP HPLC; the filing calls Km the binding affinity.
[Ala^38, SPro^39, Abu^67,95]-HIV-1 PR: the Km came out at 8.2 µM.
Still for that read-out and setting: the value for “[Leu-NHCH2-Thz^38-39, Abu^67,95]-HIV-1 PR” was 11.4 µM; that for [SPro^39, Abu^67,95]-HIV-1 PR was 11.9 µM.
Still for that read-out and setting: the value for recombinant HIV-1 PR was 10.1 µM.
